This is an account of results in US20190390204A1.

Holding throughout (assay): cell-based or functional assay
For assay [1], the target named is LITE2.0 TALE-CIB1 component.
The target of a further assay is TALE(Ngn2)-NLS-CRY2PHR.
For assay [2], the target named is LITE 1.9.1 TALE-CIB1 construct (mutated NLS, Δ318-334, AD5 NES).

Consider LITE2.0 CRY2PHR-VP64 component, for which, in assay [1], the light induction (light/no-light ratio of Neurog2 expression), LITE2.0 turned out to be 20.4.
As for CIB1-NLS-VP64_2A_GFP, in the assay with TALE(Ngn2)-NLS-CRY2PHR, the Neurog2 expression (qPCR) after 0.5 h of light stimulation, vs YFP samples was 5 fold and the Neurog2 expression (qPCR), peak at 12 h of light stimulation, vs YFP samples was 19 fold.
In assay [2], CRY2PHR-NLS-VP64_2A_GFP registered a background mRNA increase (no light), LITE1.9.1 of 1.06 fold and a light induction (light/no-light), LITE1.9.1 of 4 fold.
